T1: OsMADS6 aa 50-200 (Oryza sativa, UniProt Q6EU39 50-200)
T1 construct: bait, Gal4 DBD fusion; also called PN20233
T1 sequence: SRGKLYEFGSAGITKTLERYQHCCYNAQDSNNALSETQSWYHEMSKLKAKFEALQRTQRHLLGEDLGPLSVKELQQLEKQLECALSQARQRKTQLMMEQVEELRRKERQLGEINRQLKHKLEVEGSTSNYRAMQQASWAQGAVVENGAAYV

T2: OsCYCOS2 aa 170-310 (Oryza sativa, UniProt A2YH60 170-310)
T2 construct: bait, Gal4 DBD fusion; also called PN20257
T2 sequence: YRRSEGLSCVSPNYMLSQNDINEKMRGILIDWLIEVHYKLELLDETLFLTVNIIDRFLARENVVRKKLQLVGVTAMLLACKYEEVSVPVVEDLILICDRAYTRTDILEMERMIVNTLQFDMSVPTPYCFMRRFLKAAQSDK

T3: OsCYCOS2 aa 50-233 (Oryza sativa, UniProt A2YH60 50-233)
T3 construct: bait, Gal4 DBD fusion; also called PN20257; O. sativa Cyclin OsCYCOS2
T3 chain: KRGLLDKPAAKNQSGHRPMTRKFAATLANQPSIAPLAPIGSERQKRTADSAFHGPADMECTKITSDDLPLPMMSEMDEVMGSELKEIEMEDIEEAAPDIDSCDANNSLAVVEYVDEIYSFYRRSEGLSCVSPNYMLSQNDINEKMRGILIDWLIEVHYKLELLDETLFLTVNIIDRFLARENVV

B1: Os008339 aa 108-226 (other)
chain: ELAETSLRLRQMRGEELHRLNVEQLQELEKSLESGLGSVLKTKSKKILDEIDGLERKRMQLIEENLRLKEQVSRMSRMEEMQPGPDSEIVYEEGQSSESVTNASYPRPPPDNDYSSDTS
notes: prey, AD fusion; also called PN20847
B2: OsBAA81880 aa 120-228 (other)
chain: IDELQQLEKNLEAGLHRVMLTKDQQFMEQISELQRKSSQLAEENMQLRNQVSQISPAEKQVVDTENFVTEGQSSESVMTALHSGSSQSQDNDDGSDVSLKLGLPCGAWK
notes: prey, AD fusion; also called PN20837
B3: OsFDRMADS8 aa 91-233 (other)
chain: KDDTLGLAKKLEALDESRRKILGENLEGCSIEELRGLEMKLEKSLHNIRLKKTELLERQIAKLKEKERTLLKDNENLRGKHRNLEAAALVANHMTTTTAPAAWPRDVPMTSSTAGAADAMDVETDLYIGLPGTERSSNRSETG
notes: prey, AD fusion; also called PN20698
B4: OsMADS5 aa 61-171 (other)
chain: SCMYKTLERYRSCNYNLNSCEASAALETELSNYQEYLKLKTRVEFLQTTQRNLLGEDLVPLSLKELEQLENQIEISLMNIRSSKNQQLLDQVFELKRKEQQLQDANKDLKR
notes: prey, AD fusion; also called PN20770
B5: OsMADS7 aa 95-259 (other)
chain: RESEQLKASRNEYLKLKARVENLQRTQRNLLGPDLDSLGIKELESLEKQLDSSLKHVRTTRTKHLVDQLTELQRKEQMVSEANRCLRRKLEESNHVRGQQVWEQGCNLIGYERQPEVQQPLHGGNGFFHPLDAAGEPTLQIGYPAEHHEAMNSACMNTYMPPWLP
notes: prey, AD fusion; also called PN21116
B6: OsMADS15 aa 73-183 (other)
chain: YSYAEKALISAESESEGNWCHEYRKLKAKIETIQKCHKHLMGEDHESLNLKELQQLEQQLESSLKHIISRKSHLMLESISELQKKERSLQEENKALQKELVERQKNVRGQQ
notes: prey, AD fusion; also called PN20842
B7: OsMADS18 aa 64-249 (other)
chain: EGILERYQRYSFDERAVLEPNTEDQENWGDEYGILKSKLDALQKSQRQLLGEQLDTLTTKELQQLEHQLEYSLKHIRSKKNQLLFESISELQKKEKSLKNQNNVLQKLMETEKEKNNAIINTNREEQNGATPSTSSPTPVTAPDPIPTTNNSQSQPRGSGESEAQPSPAQAGNSKLPPWMLRTSHT
notes: prey, AD fusion; also called PN20912
B8: PN26210 aa 422-646 (other)
chain: IAELTAKAEEQQKLILKLEDDILKGYSSTDRRTSLLNDWDLQEIGSNEVAEGTDPRHAPQDQDQSSMLKVICNQRDRFRTRLRETEEELRRLKEKYEMLVVELEKTKADNVQLYGKIRYVQDYSHEKIVSRGPKKYAEDVESGSSDVETKYKKMYEDDINPFAAFSKKEKDQRYKELGLRDKITLSSGRFLLGNKYARTFIFFYTIGLHLLVFTLLYRMSALSYL
notes: prey, AD fusion; also called O. sativa Putative CCAAT Displacement Protein
B9: PN26210 aa 364-613 (other)
chain: VGYNSIEAEDWELATNGEEMSKLEALLLDKNRKMEHELTQLKVKISEKSNLLEEAEKKIAELTAKAEEQQKLILKLEDDILKGYSSTDRRTSLLNDWDLQEIGSNEVAEGTDPRHAPQDQDQSSMLKVICNQRDRFRTRLRETEEELRRLKEKYEMLVVELEKTKADNVQLYGKIRYVQDYSHEKIVSRGPKKYAEDVESGSSDVETKYKKMYEDDINPFAAFSKKEKDQRYKELGLRDKITLSSGRFLL
notes: prey, AD fusion; also called Putative CCAAT Displacement Protein
B10: PN23136 aa 66-191 (other)
chain: LRERIHKTRQHITQLVKDTSEKLKQASEADHRVEVSASKKIADAKLAKDFQAVLKEFQKAQRLAVEREAAYAPFISQAGLPQSYNSSEVNNGADKLAEQRTALLESRRQELVFLDNEIVFNEAVIE
notes: prey, AD fusion; also called Hypothetical Protein BAA85200 Similar to Syntaxin Related Protein AtVam3p
B11: PN20815 aa 1-134 (other)
chain: MDKELKERDEKYVELDTKFQRLHKRAKQRIQDIQKEKDDMEARFNEINQKAEQASSLQSAAQQELERARQQASEALRSMDAERQQLRTVNSKLRTNLDEARVALEARNNVLEKLRQSMFEKEQLLEQTQASLQS
notes: prey, AD fusion; also called Hypothetical Protein PN20815 Similar to A. thaliana Myosin Heavy Chain, Fragment
B12: OsPN23484 aa 77-233 (other)
chain: AETATSEAMLMIERLQREKAAAQMEARQFRRYAEGREDREREVQEELASLSDLAASYHSRLQSHGIDPDSFSDDGEEEQHDEEDGEEVEQIDTAALQTDGSSGGDSIGGMQVKAMVDDDEEEQFTPVEKEFEYTVDVRCASSTTKVSGAVVVGEFMG
notes: prey, AD fusion
B13: OsPN23484 aa 64-212 (other)
chain: RELQAELDAERASAETATSEAMLMIERLQREKAAAQMEARQFRRYAEGREDREREVQEELASLSDLAASYHSRLQSHGIDPDSFSDDGEEEQHDEEDGEEVEQIDTAALQTDGSSGGDSIGGMQVKAMVDDDEEEQFTPVEKEFEYTVD
notes: prey, AD fusion
B14: OsPN23484 aa 90-245 (other)
chain: RLQREKAAAQMEARQFRRYAEGREDREREVQEELASLSDLAASYHSRLQSHGIDPDSFSDDGEEEQHDEEDGEEVEQIDTAALQTDGSSGGDSIGGMQVKAMVDDDEEEQFTPVEKEFEYTVDVRCASSTTKVSGAVVVGEFMGEGNAAAGGLYAR
notes: prey, AD fusion
B15: OsPN29882 aa 107-273 (other)
chain: ALMVERLEGSRQKLLMEIDSQSSEIEKLFEENSALSTSYQEAVAVTMQWENQVKDCLKQNEELRSHLEKLRLEQATLLKTSNTTIQPDGQNETSISFPPEFVTENLSLKDQLIKEQSRSEGLSAEIMKLSAELRKAVQAQNNLARLYRPVLRGIESNLMKMKQETYA
notes: prey, AD fusion; also called Novel Protein PN29882, Fragment, myosin heavy chain
B16: OsPN29942 aa 1-159 (other)
chain: EHESDEEKNEVDTSNEIKEIVIDDMEPKVFQAGFLFMYRDNLVGDDELSASSSDCSIFDTLAGKLLAAADRYELPRLRLLCESYLCKHISVNSVATTLALADRHHAMELKSVCLKFAAENLSAVIRTDGFDYLKDNCPALQSEILRTVAGCEEECSSGG
notes: prey, AD fusion
B17: OsPN29958 aa 3-304 (other)
chain: QNEVSALEKQTLSLANDCLQSNKLRMEENALSTQVLKTNMRSSGDQNTVRTVKDMELQKLHGTIKALQKVVTDTAVLLDQERLDFNANLQEARKQIEVLKLKEILDDDLIEMNYEQMLKDIQLDLIQISSGNKTGSLGQANKTVAQANEKMLDSHGIVGASSSHVRNDLRPPQSESFERDNYKRPPSELMVVKELSIDKQELPRSITTEPHQEWKNKVIERLASDAQRLNALQSSIQELKTNTEASEGLELESVRYQIREAEGFITQLIDSNGKLSKKAEEFTSEDGLDGDNIDLRSRHQRK
notes: prey, AD fusion; also called Novel Protein PN29958, Fragment, centromere homologue
B18: OsPN29961 aa 10-215 (other)
chain: QKDGAPDEGSVGVPGRKTKETVTAADAIIDALDTAEEEVKRLDQHQEGQNNGNGTTFQPNVIMQGQSPSDYVLNVVSNVRPNDLEQALLSLPFSDALKIMSYLKEWSMVPLKVELVCRVCLVLLQTHHSQLTTTPSARSILTELKGILYSRVKECKDAIGFNLAAMDHIKELLAMRSDAPFRDARAKLMEIRQEQSRRSDRSDGAE
notes: prey, AD fusion; also called Novel Protein PN29961, Fragment, Similar to A. thaliana Unknown Protein BAB02349
B19: OsPN29966 aa 8-216 (other)
chain: GTISAVEQESARQIASKDAEIAFLNEKLHQFRNSGLSLSEGRDKLYEEIYNLRQQLVTLSKSLLNSEWGLSVSHYNNFEGAEDESKHRGNEKSSKDGITKENGSKGSNEDIFIDPTVLKHMDRDELVAHFNKMMNQMKRQHDSTLQEKTEEIFRLKRENLKKEGPNPWHLRNNKEFELMRKKIWEVITKLDEVLVENKRTIRIKSDVFP
notes: prey, AD fusion; also called Novel Protein PN29966, Fragment, myosin heavy chain
B20: OsPN30854 aa 100-169 (other)
chain: RIDVVNRQLKPLGKTCVKKEKEYKEILEAYNEKNKEKALLVNRLIELVSESERMRMKKLEELNKTVDSLY
notes: prey, AD fusion; also called Novel Protein PN30854, unknown

Experiments:
Test in all cases: Y2H; output trait library
OsMADS6 aa 50-200 = biological target: T1, OsMADS6 aa 50-200
Method in brief: (§1)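 Using an automated, high-throughput yeast two-hybrid assay provided by Myriad Genetics Inc. (Salt Lake City, Utah), protein-protein interactions were detected. Against either the input trait or the output trait rice prey library, a bait clone encoding a defined amino-acid fragment of a rice protein was screened. The encoding sequences of the prey clones that were retrieved were then compared against databases by BLAST to identify the interacting proteins.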

OsCYCOS2 aa 170-310 = biological target: T2, OsCYCOS2 aa 170-310
Method in brief: as §1

OsCYCOS2 aa 50-233 = biological target: T3, OsCYCOS2 aa 50-233
Method in brief: as §1

Binder | binding result (OsMADS6 aa 50-200) | binding result (OsCYCOS2 aa 170-310) | also measured
B1 | binds |  | 
B2 | binds |  | 
B3 | binds |  | 
B4 | binds |  | 
B5 | binds |  | 
B6 | binds |  | 
B7 | binds |  | 
B8 |  | binds | 
B9 |  | binds | 
B10 |  |  | binding result (OsCYCOS2 aa 50-233): binds
B11 |  | binds | 
B12 |  | binds | 
B13 |  | binds | 
B14 |  | binds | 
B15 |  |  | binding result (OsCYCOS2 aa 50-233): binds
B16 |  | binds | 
B17 |  |  | binding result (OsCYCOS2 aa 50-233): binds
B18 |  |  | binding result (OsCYCOS2 aa 50-233): binds
B19 |  |  | binding result (OsCYCOS2 aa 50-233): binds
B20 |  | binds | 

Source: patent US20060253917A1 (published 2006)
